Test results reported in patent publication US20080300188A1 (GENEXINE, published 2008).

Assays:
[1] = biological target: T1, C1q (AbD serotech, Cat#. 2221-5504) (UniProt P02745 23-245; P02746 28-253; P02747 29-245); assay: ELISA, sample coated on strip, C1q added, detected with HRP conjugated anti-C1q
T1 construct: Bought C1q, added at 2 ug/ml
Experimental: (§1) To investigate whether hFc-5-fused proteins bind to FcγRI and C1q, MabThera® (Rituximab, Roche), hIgG1 (Calbiochem, Cat#, 400120), Enbrel® (etanercept, Amgen), EPO-hFc-5, G-CSF-hFc-5 and p40N303Q-hFc-5 were serially diluted (from 2 ug/ml to 16 ng/ml with 2-fold) and coated on the 8 well strip (COSTAR, New York) overnight at 4° C. To make a standard curve, FcγRI (R&D, cat# BAF1257) or C1q (AbD serotech, Cat#. 2221-5504) were also serially diluted (from 2 ug/ml to 32 ng/ml with 2-fold) and coated on the 8 well strip (COSTAR, New York) overnight at 4° C. After washing each strip of samples with washing buffer (PBS containing 0.05% tween) and blocking with 10% FBS in PBS for 1 hour at RT, FcγRI or C1q were added into each well at 2 ug/ml following incubation for 2 hours at room temperature (RT). All strips were washed with washing buffer. For C1q binding test, HRP conjugated anti-C1q (AbD serotech, cat#. 2221-5004P) was added into each well at 2.5 ug/ml following 30 min incubation at RT under dark condition. For FcγRI binding test, biotinylated anti-FcγRI (R&D, cat#. 1257-FC) was added into each well at 2 ug/ml following 1 hour incubation at RT. After washing them with washing buffer, Streptavidine-HRP (BD, cat#. 554066) diluted with 3,000 fold was added into each strip following 30 minute incubation at RT under dark condition. […]

[2] = biological target: T2, FcγRI (R&D, cat# BAF1257) (UniProt P12314 16-288, limits assumed); assay: ELISA, sample coated on strip, FcγRI added, detected with biotinylated anti-FcγRI and streptavidin-HRP
T2 construct: Bought soluble reagent, added at 2 ug/ml; also called FcγR1
T2 sequence (P12314 16-288 limits assumed): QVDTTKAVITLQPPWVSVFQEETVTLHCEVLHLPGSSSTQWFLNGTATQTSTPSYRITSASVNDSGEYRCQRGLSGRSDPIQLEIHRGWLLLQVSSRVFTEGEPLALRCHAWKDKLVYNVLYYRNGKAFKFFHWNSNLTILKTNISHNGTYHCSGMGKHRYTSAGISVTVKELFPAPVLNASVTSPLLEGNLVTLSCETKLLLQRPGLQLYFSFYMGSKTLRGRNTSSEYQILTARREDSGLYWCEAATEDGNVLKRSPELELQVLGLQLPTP
Experimental: as §1

T1 sequence (P02745 23-245 limits assumed, chain 1 of 3): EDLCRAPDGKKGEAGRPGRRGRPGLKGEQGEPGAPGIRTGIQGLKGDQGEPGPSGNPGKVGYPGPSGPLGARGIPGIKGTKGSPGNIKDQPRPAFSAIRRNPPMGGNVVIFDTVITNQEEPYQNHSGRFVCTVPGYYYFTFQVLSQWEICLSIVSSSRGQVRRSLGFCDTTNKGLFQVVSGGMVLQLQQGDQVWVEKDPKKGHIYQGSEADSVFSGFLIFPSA
T1 sequence (P02746 28-253 limits assumed, chain 2 of 3): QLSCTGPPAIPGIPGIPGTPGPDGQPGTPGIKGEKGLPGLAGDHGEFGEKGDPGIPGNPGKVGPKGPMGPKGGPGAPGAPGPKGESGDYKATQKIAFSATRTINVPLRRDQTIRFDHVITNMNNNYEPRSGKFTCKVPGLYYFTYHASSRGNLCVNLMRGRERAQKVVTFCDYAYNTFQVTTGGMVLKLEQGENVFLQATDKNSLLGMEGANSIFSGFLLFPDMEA
T1 sequence (P02747 29-245 limits assumed, chain 3 of 3): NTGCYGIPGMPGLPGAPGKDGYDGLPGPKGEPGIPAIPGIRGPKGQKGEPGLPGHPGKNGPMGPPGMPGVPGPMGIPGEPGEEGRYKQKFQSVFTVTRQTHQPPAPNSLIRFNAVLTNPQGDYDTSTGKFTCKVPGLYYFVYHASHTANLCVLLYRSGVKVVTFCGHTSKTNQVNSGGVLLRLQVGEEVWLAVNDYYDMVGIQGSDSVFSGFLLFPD

- binding result [1]: no binding
- binding result [2]: no binding
B1: p40N303Q-hFc-5 (Fc fusion)
chain: IWELKKDVYVVELDWYPDAPGEMVVLTCDTPEEDGITWTLDQSSEVLGSGKTLTIQVKEFGDAGQYTCHKGGEVLSHSLLLLHKKEDGIWSTDILKDQKEPKNKTFLRCEAKNYSGRFTCWWLTTISTDLTFSVKSSRGSSDPQGVTCGAATLSAERVRGDNKEYEYSVECQEDSACPAAEESLPIEVMVDAVHKLKYENYTSSFFIRDIIKPDPPKNLQLKPLKNSRQVEVSWEYPDTWSTPHSYFSLTFCVQVQGKSKREKKDRVFTDKTSATVICRKQASISVRAQDRYYSSSWSEWASVPCSRNTGRGGEEKKKEKEKEEQEERETKTPECPSHTQPLGVFLFPPKPKDTLMISRTPEVTCVVVDVSQEDPEVQFNWYVDGVEVHNAKTKPREEQFNSTYRVVSVLTVLHQDWLNGKEYKCKVSNKGLPSSIEKTISKAKGQPREPQVYTLPPSQEEMTKNQVSLTCLVKGFYPSDIAVEWESNGQPENNYKTTPPVLDSDGSFFLYSRLTVDKSRWQEGNVFSCSVMHEALHNHYTQKSLSLSLGK
notes: also called human p40N303Q-hFc-5
